Measured values published in patent US20120015885A1 (published 2012).

Legend:
[1] = biological target: 2-chloro-(ε-amino-Lys75)-[6-(4-N,N-diethylaminophenyl)-1,3,5-triazin-4-yl]calmodulin (TA-CaM) (UniProt P0DP23 2-149); assay: competition with CBD for TA-CaM, fluorescence
[2] = biological target: calcium/calmodulin (CaM)-dependent protein kinase II (CaMKII) (UniProt P11275 1-478); assay: cell-based or functional assay
CaMKI = assay: cell-based or functional assay
biotinylated CaM = biotinylated CaM (UniProt P0DP23 2-149); assay: slot blot with biotinylated CaM (FIG. 9E) and TA-CaM competition (FIG. 9G)

calcium/calmodulin (CaM)-dependent protein kinase II (CaMKII), sequence (P11275 whole entry): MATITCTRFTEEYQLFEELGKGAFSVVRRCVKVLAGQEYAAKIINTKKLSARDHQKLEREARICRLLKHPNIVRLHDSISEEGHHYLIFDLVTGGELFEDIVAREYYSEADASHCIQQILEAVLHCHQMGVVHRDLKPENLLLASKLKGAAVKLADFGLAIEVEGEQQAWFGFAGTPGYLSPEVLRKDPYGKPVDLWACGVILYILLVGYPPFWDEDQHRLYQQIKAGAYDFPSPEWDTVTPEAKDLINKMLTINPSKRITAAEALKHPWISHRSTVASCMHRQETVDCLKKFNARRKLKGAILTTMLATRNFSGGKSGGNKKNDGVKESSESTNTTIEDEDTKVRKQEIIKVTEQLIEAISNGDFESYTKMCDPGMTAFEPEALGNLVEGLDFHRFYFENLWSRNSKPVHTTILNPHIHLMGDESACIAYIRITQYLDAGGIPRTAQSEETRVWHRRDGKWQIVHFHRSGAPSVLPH

B1: antCN27 (peptide)
peptide: RQIKIWFQNRRMKWKKRPPKLGQIGRSKRVVIEDDRIDDVLK
notes: a final (K) of ant was replaced by the first K of the CN peptide in the fusion
- Kd [1]: ~1 nM

Binder: KRAPKLGQIGRVKAVVIED [CN19a2v]
- IC50, CaMKII activity towards syntide 2 [2]: ~20 nM
- fold increase of potency against CN19 [2]: ~5 fold
- IC50, CaMKI activity (CaMKI): ~18000 nM

Binder: KRAPKLGQIGRQKAVDIED [CN19o]
- IC50, CaMKII activity [2]: ~0.75 nM
- fold increase of potency against CN19 [2]: > 125 fold
- selectivity for CaMKII vs CaMKI [2]: ~50000 fold
- IC50, CaMKI activity (CaMKI): ~38000 nM

Binder: KRAPKLGQIGRVKAVDIED [V16D mutant of CN19a2v]
- IC50, CaMKII activity [2]: ~1 nM

Binder: KRPPKLGQIGRSKRVVIEDD [CN20]
- IC50, phosphorylation of syntide 2 by CaMKII [2]: ~100 nM

Binder: KRAPKLGQIGRQKAVVIED [V12Q mutant of CN19a2v]
- IC50, CaMKII activity [2]: ~1 nM

Binder: KRPPKLGQIGRSKRVVIED [CN19]
- IC50, phosphorylation of syntide 2 by CaMKII [2]: ~100 nM
- IC50, CaMKI activity (CaMKI): ~36000 nM

B2: ant (peptide)
peptide: RQIKIWFQNRRMKWK
notes: whether the free peptide had it is not clear; also called ant peptide; penetratin
- Kd [1]: ~5 nM

Binder: KRPPKLGQIGRSKRVVIEDDRIDDVLK (also called CaM-KIINtide) [CN27]
- binding result (biotinylated CaM): no binding

Binder: KRPPKLGQIGRSKRVVIEDDR [CN21]
- IC50, phosphorylation of syntide 2 by CaMKII [2]: ~100 nM

Binder: KRPPKLGQIGRSKAVVIED [CN19 R14A]
- IC50, CaMKII activity [2]: < 10 nM
- fold increase of potency against CN19 wild type [2]: > 10 fold
